Results published in patent US20110136850A1.

How the values were obtained:
[1] = target: topoisomerase I from H358 cells (serine-phosphorylated) (human) (UniProt P11387); assay: IP/Western analysis, FIG. 5D upper panel
[2] = target: topoisomerase I from H358 cells (serine-phosphorylated) (human) (UniProt P11387); assay: IP/Western analysis, FIG. 5D upper panel lane 5
[3] = target: topoisomerase I from H358 cells (serine-phosphorylated) (human) (UniProt P11387); assay: co-immunoprecipitation followed by Western analysis, 48 hours after Adp14 (moi 20 pfu/cell)

Chain of topoisomerase I from H358 cells (serine-phosphorylated) (human) (P11387 2-765 limits assumed): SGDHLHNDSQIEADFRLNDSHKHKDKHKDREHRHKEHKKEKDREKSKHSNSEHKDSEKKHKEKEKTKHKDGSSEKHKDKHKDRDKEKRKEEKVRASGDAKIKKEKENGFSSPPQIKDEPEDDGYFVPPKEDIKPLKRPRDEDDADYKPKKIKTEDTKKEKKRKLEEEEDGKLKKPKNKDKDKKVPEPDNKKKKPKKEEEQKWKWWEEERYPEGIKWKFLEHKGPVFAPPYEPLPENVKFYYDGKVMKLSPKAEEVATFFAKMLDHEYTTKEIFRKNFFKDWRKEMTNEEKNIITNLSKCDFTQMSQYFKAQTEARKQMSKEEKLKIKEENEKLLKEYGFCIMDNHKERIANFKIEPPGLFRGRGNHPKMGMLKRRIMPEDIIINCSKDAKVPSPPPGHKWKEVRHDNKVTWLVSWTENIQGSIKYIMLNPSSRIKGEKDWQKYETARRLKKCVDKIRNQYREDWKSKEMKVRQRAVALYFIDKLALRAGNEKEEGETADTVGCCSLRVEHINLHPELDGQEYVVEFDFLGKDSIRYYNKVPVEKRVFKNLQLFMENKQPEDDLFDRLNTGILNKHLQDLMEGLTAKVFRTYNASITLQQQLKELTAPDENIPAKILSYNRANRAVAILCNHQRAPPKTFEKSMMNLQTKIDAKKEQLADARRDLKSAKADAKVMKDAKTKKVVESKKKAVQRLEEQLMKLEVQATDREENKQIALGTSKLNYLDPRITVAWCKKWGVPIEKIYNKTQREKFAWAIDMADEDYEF

p14ARF (ARF), cellular protein in nuclear extracts (endogenous or expressed from the Adp14 adenoviral vector) (from UniProt Q8N726 1-132)
3 fold: fold increase in ARF/topoisomerase I complex formation in Adp14-treated H358 cells against Ad1β-treated, control siRNA treated, or non-vector treated cells [1] | fold decrease in ARF/topoisomerase I complex formation in ARF siRNA-treated H358 cells [2] | fold increase of co-immunoprecipitated ARF-topoisomerase I complexes after Adp14 treatment against untreated H358 cells [3]
